In the supplement of paper PMC10567573:
± gives the standard deviation.

Test: protein stability index of a GFP-peptide fusion (GPS, HEK-293T) (PSI 1-6); higher = more stable
[1] = treatment: DMSO, c terminus: a fixed tail appended
[2] = treatment: MLN4924 1 uM, 8 h, c terminus: a fixed tail appended
[3] = treatment: DMSO, c terminus: native
[4] = treatment: MLN4924 1 uM, 8 h, c terminus: native
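Further: 24-mer peptide tiles fused after GFP, lentivirally expressed, FACS-sorted into six equal bins by GFP/DsRed ratio, decoded by Illumina sequencing, PSI is the read-weighted mean bin number.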

Row | Sequence | protein stability index [1] | protein stability index [2] | protein stability index [3] | protein stability index [4]
1 | YDYLRKLFTDLFDRKGYMFDYEYD [CSNK1G3] | 2.11 ± 0.76 | 2 ± 0.3 | – | –
2 | KKDNHALVRETDELRRNHCFQDFK [ELOA2] | 4.11 ± 0.31 | 4.03 ± 0.3 | – | –
3 | ILVMKHNYSQDAADACDIDEIEEV [NETO1] | 4.11 ± 0.16 | 4.18 ± 0.28 | – | –
4 | TVVSVRGFEESEPLTGFLTTVPDG [TNXB] | 3.92 ± 0.25 | 3.78 ± 0.41 | – | –
5 | GEATAAPAPLCGGPSAEAYLLHPA [TBX6] | 4.17 ± 0.22 | 4.47 ± 0.13 | – | –
6 | LWDTSGQGRFCTIFRSYSRGAQGV [RAB40A] | 2.24 ± 0.41 | 2.51 ± 0.36 | – | –
7 | AETQPQNPPAQPAPNAWQVIKGVL [CLPTM1] | 3.55 ± 0.15 | 3.78 ± 0.25 | – | –
8 | KKYVKGDVSLCRWHPKPYCQALPY [FBXO34] | 2.31 ± 0.45 | 2.05 ± 0.28 | – | –
9 | LRREPSERLTAPEILLHPWFESVL [TRIB1] | 2.51 ± 0.25 | 2.74 ± 0.52 | – | –
10 | LVQTTDFFYPLVEDPYMMGRIACA [SEPHS2] | 2.34 ± 0.47 | 2.23 ± 0.29 | – | –
11 | RQLDPSNCLGIRAFADTHSCRELL [KLHL20] | 3.07 ± 0.32 | 3.23 ± 0.3 | – | –
12 | DHARGKSQVALKIIRNVGKYREAA [CLK3] | 3.15 ± 0.18 | 3.33 ± 0.19 | – | –
13 | PYFKSNDVVCKNQDELRNRSVKVI [FAN1] | 3.78 ± 0.16 | 4.01 ± 0.33 | – | –
14 | EFQPAKCTDKENALKLFPVQPCSA [FAM189A2] | 3.97 ± 0.17 | 4.03 ± 0.51 | – | –
15 | EVYQEVQAMFDTLGIPKSTTSDIP [FAM98B] | 3.09 ± 0.31 | 3.5 ± 0.49 | – | –
16 | NTFFCHSNMCINNTLVCNGLQNCV [NETO1] | 2.13 ± 0.41 | 2.07 ± 0.38 | – | –
17 | QLPPVVPVSKPGALRRSLSRSMSQ [TCAP] | 3.97 ± 0.13 | 3.96 ± 0.13 | – | –
18 | ARLLQEGGGGVAAVVVLDQGSRHW [DUSP5] | 2.64 ± 0.97 | 2.44 ± 0.75 | – | –
19 | INTLITSGADTAKCGIHSMFPLHL [ANKRD44] | 1.8 ± 0.21 | 2.64 ± 0.84 | – | –
20 | AVKLADFGLAIEVEGEQQAWFGFA [CAMK2A] | 2.51 ± 0.48 | 2.26 ± 0.5 | – | –
21 | STSLPDPGDFDRNVPRICGVCGDR [VDR] | 4.6 ± 0.2 | 4.56 ± 0.55 | – | –
22 | INQPLPDLKNVKSKIGSTDNIKYQ [MAP2] | 4.29 ± 0.17 | 4.47 ± 0.16 | – | –
23 | RALQAALAESGGSPDVLQMLKIHR [TRADD] | 2.61 ± 0.34 | 2.91 ± 0.25 | – | –

Row | Sequence | protein stability index [1] | protein stability index [2] | protein stability index [3] | protein stability index [4]
24 | CNECAKLIIQAGIKEVIFMSDKYH [DCTD] | 2.01 ± 0.81 | 2.43 ± 0.41 | – | –
25 | YANAVLQALSNVPPLRNYFLEEDN [USP39] | 2.19 ± 0.072 | 2.12 ± 0.24 | – | –
26 | KIGVGAMTWSPLACGIVSGKYDSG [KCNAB2] | 2.81 ± 0.27 | 2.85 ± 0.61 | – | –
27 | IQDVVQPLTLQVQRPLVSVTVSDA [AUP1] | 3.56 ± 0.28 | 3.58 ± 0.22 | – | –
28 | LEPLGAPQAPAPATATDTFEAAPP [CEBPB] | 5.38 ± 0.42 | 5.39 ± 0.44 | – | –
29 | SLFSQALKDEEAKVLQLTVRCEAL [CCDC89] | 2.8 ± 0.26 | 2.76 ± 0.17 | – | –
30 | AKKEDKVPVKKQKTRTVFSSTQLC [NANOGP8] | 4.2 ± 0.1 | 4.19 ± 0.12 | – | –
31 | SMENANQENEEKEQVANKGEPLAL [BEX1] | 5 ± 0.26 | 5.11 ± 0.22 | – | –
32 | GEGVDKLSLPARNQAGYFMLPTVI [ALDH8A1] | 2.19 ± 0.18 | 2.36 ± 0.18 | – | –
33 | DHCAQQDHGCEQLCLNTEDSFVCQ [MATN2] | 5 ± 0.075 | 5.08 ± 0.16 | – | –
34 | KPTVFIGVPQIWEKIHEMVKKNSA [ACSBG2] | 2.75 ± 0.34 | 2.47 ± 0.81 | – | –
35 | HFSQIVIFMLCTLVLAIPLLLILV [OR10K2] | 2.24 ± 0.25 | 2.25 ± 0.19 | – | –
36 | KETEFLRLKRTRLGLDDFESLKVI [STK38L] | 2.44 ± 0.16 | 2.56 ± 0.34 | – | –
37 | TSQGQVRMRLFGQRCQKCSWSQYE [RTP4] | 2.4 ± 0.37 | 2.01 ± 0.39 | – | –
38 | KQMSFLEKRGCPRTALEYCKLILS [TCF25] | 3.12 ± 1 | 3.02 ± 0.2 | – | –
39 | AAAEVGGGVGGSSRARSASSPRGM [ANKRD17] | 4.82 ± 0.34 | 5 ± 0.24 | – | –
40 | RQITQVYGFYDECLRKYGNANVWK [PPP2CA] | 2.19 ± 0.33 | 2.33 ± 0.26 | – | –
41 | LAESGGSPDVLQMLKIHRSDPQLI [TRADD] | 3.16 ± 0.43 | 3.36 ± 0.24 | – | –
42 | RMEEIVEGCTGALHILARDVHNRI [CTNNB1] | 2.74 ± 0.19 | 2.89 ± 0.28 | – | –
43 | PEEGQQPWLCGESFTLADVSLAVT [GDAP1] | 3.27 ± 0.23 | 3.4 ± 0.21 | – | –
44 | DLLHGPECRSSVTSDSEGAHVNTL [PHTF1] | 4.33 ± 0.14 | 4.61 ± 0.35 | – | –
45 | LCLQLRDDIVSGRLPCSFVTLALL [EPB41L3] | 3.24 ± 0.61 | 2.23 ± 0.45 | – | –
46 | QTVDGKHQDLKYISPETMVALLTG [CDC25B] | 2.77 ± 0.43 | 2.8 ± 0.33 | – | –

Row | Sequence | protein stability index [1] | protein stability index [2] | protein stability index [3] | protein stability index [4]
47 | GGLLSYDEGGITKQPPVTQSKTAS [FBF1] | 4.96 ± 0.18 | 4.89 ± 0.33 | – | –
48 | QEAFLVQEVVELPVTERQIEREHL [TBC1D10A] | 4.94 ± 0.25 | 4.71 ± 0.23 | – | –
49 | GNDFTQNAGTGLVINQADVRNNRS [PLD5] | 4.58 ± 0.35 | 4.55 ± 0.35 | – | –
50 | GSNLDDAKGLAESLELPKAIQDQL [FANCE] | 5.08 ± 0.53 | 5.3 ± 0.33 | – | –
51 | LIHKADEVTLSEAGSTAGAAETRG [PALM] | 5.31 ± 0.2 | 5.18 ± 0.15 | – | –
52 | FIALLILFILSTLVVDYIDEGRLV [SOAT1] | 3.18 ± 0.3 | 3.26 ± 0.5 | – | –
53 | LFGTIAYLPPERIREKSRLFDTKH [RIPK4] | 2.57 ± 0.52 | 2.57 ± 0.27 | – | –
54 | TRRSCIDESQISAEEAEDHGRIPD [FAM189A2] | 5.5 ± 0.33 | 5.49 ± 0.15 | – | –
55 | RDHIPRGKEELESLGGGKTPPGR [MOG] | – | – | 3.87 ± 0.1 | 4.09 ± 0.42
56 | IVNQWSEKFSDEGDSDSALDSVSP [DLC1] | 5.32 ± 0.18 | 5.24 ± 0.23 | – | –
57 | GMAFFKMREMFFEDHIDDAKYCGH [CNOT7] | 2.35 ± 0.2 | 2.36 ± 0.16 | – | –
58 | HLYAEPQKSPWCEARSLEHTLPVN [ESR2] | 2.93 ± 0.23 | 3.38 ± 0.24 | – | –
59 | MQEKNPVHVIGVEEPSVGASMLFD [ZNF8] | 4.41 ± 0.094 | 4.34 ± 0.2 | – | –
60 | HYFHSISYKIEEISPSTLKNSLFP [KCNK9] | 2.17 ± 0.28 | 2.18 ± 0.18 | – | –
61 | MDYKSSLIQDGNPMENLEKQLICP [TRIM63] | 4.06 ± 0.29 | 4.14 ± 0.16 | – | –
62 | GAPTSLQTEPQDRSPAPMSCDKST [BCL2L11] | 5.36 ± 0.3 | 5.36 ± 0.1 | – | –
63 | LPREPGDSAQFTKALAIILHLLYL [FEM1A] | 2.16 ± 0.12 | 2.23 ± 0.12 | – | –
64 | GLRAATMSAVEAATCRAKELSRK [PYCR3] | – | – | 5.1 ± 0.95 | 4.97 ± 0.18
65 | DIYYNNMEEVCGGEKPYLSPDILE [ATL3] | 3.72 ± 0.57 | 3.59 ± 0.27 | – | –
66 | KMKYKGQYRPSDLLCPETYVWVPI [ATE1] | 2.01 ± 0.39 | 2.03 ± 0.26 | – | –
67 | ERGVEGDFLIRDSESSPSDFSVSL [NCK2] | 4.37 ± 0.2 | 4.26 ± 0.25 | – | –
68 | EFKRLASSKAHTSRFISANLPCNK [PTPRD] | 2.88 ± 0.1 | 2.97 ± 0.41 | – | –
69 | VPEEEQAANKGEEKKDDENIPMET [SMARCE1] | 5.63 ± 0.19 | 5.68 ± 0.27 | – | –

Row | Sequence | protein stability index [1] | protein stability index [2] | protein stability index [3] | protein stability index [4]
70 | AFHGAPSHLPTRSPSFPEAPDSGR [TBX6] | 4.32 ± 0.26 | 4.37 ± 0.38 | – | –
71 | SPNFGFMGQLLQYESEILPSTPNP [DUSP5] | 3.59 ± 0.092 | 3.45 ± 0.48 | – | –
72 | DDVEVLTLKKFKGDLAYRRQEYQK [C8orf76] | 3.78 ± 0.18 | 3.92 ± 0.31 | – | –
73 | FLTTAIRPHGIFGPRDPQLVPILI [NSDHL] | 2.69 ± 0.53 | 2.42 ± 0.41 | – | –
74 | VDWDEEYPPQMGEEYSQIIYSTKL [BTBD10] | 3.49 ± 0.15 | 3.55 ± 0.41 | – | –
75 | KIANLGSCNDSKLEFRSFWELIGE [S100A14] | 1.91 ± 0.33 | 2.11 ± 0.38 | – | –
76 | VAFGIEADDESLLRTSNGQPVKTA [DNAAF3] | 4.47 ± 0.23 | 4.52 ± 0.16 | – | –
77 | LEEGSSFWNQGLTWKVLFCSMSAT [CLCN6] | 3.06 ± 0.55 | 2.63 ± 0.67 | – | –
78 | RKGELVTASKAIIEKEYQPHVIVS [ADD1] | 3.62 ± 0.18 | 3.97 ± 0.21 | – | –
79 | TSENLKLVHIVCHKKTTHKLNCDP [DFFB] | 2.81 ± 0.19 | 2.97 ± 0.21 | – | –
80 | GRTHQWKPLYPDDYVHISSKPCDL [ADAMTSL2] | 3.25 ± 0.3 | 3.42 ± 0.093 | – | –
81 | EEFAQAESKDQGKTLALARTMDIP [ALDH8A1] | 5.13 ± 0.19 | 5.38 ± 0.15 | – | –
82 | ITFSGRPSRVHASEVESAVWYVKK [FBXO39] | 2.41 ± 0.21 | 2.68 ± 0.32 | – | –
83 | GKAYGWCSELIRHRRVHARKEPSH [ZNF232] | 3.23 ± 0.17 | 3.26 ± 0.38 | – | –
84 | AIHYCASTSEESWTDSEVDSSCSG [SPDEF] | 5.28 ± 0.2 | 5.18 ± 0.37 | – | –
85 | YSLELGKAIKQKLWEALCSQGAIS [C22orf31] | 2.4 ± 0.45 | 2.63 ± 0.29 | – | –
86 | KLREFLRVEEQAILDAMAEETRQK [TRIM35] | 2.85 ± 0.53 | 3.34 ± 0.18 | – | –
87 | QLRLLQAPLQADLTEQVWKVQDAL [SCARA5] | 3.15 ± 0.28 | 3.12 ± 0.3 | – | –
88 | DHSSQSEEEVVEGEKEVEALKKSA [BNIP3L] | 5.5 ± 0.36 | 5.67 ± 0.26 | – | –
89 | KRAFKIKDFANTIPGHGGIMDRFD [CDS2] | 2.77 ± 0.27 | 2.91 ± 0.42 | – | –
